Data reported in patent US20210355205A1.

Legend:
[1] = target: Cynomolgus IL-5 (cynomolgus monkey); experiment: cell-based or functional assay
[2] = target: recombinant human IL-5 (human) (UniProt P05113); experiment: cell-based or functional assay

Mean (pM): mean IC50, TF-1.6G4 cell line proliferation assay [1]: 584 pM | Mean (pM): mean IC50, TF-1.6G4 cell line proliferation assay [2]: 534 pM
Substance: Mepolizumab (antibody)
